Our source for the Kd values is publication PMC2668917.

Usually Kd stands for the constant that tells how readily two partners part at equilibrium. Low readings indicate tighter binding, high ones weaker binding.

The assay deals with GST-tagged Nup358-IR (Nup358 internal repeat/E3 ligase domain) (UniProt P49792). In words: SPR. Background: SPR reads the build-up and loss of mass on a sensor chip optically.
For “SUMO-1 modified His-RanGAP1-NΔ419 (from UniProt P46061 420-589; P63165 1-97)”, the dissociation constant Kd amounted to 7 nM.
Under “SUMO-1/2 chimera modified His-RanGAP1-NΔ419 (from UniProt P46061 420-589; P63165 1-30; P55854 26-46; P63165 52-97)” stands 20 nM; under “SUMO-2 modified His-RanGAP1-NΔ419 (from UniProt P46061 420-589; P55854 1-92)”, 36 nM.
